{"source": "patent US20230322930A1", "about": "“USE OF AN ANTI-PD-1 ANTIBODY AND A CYTOTOXIC ANTICANCER DRUG IN TREATMENT OF NON-SMALL CELL LUNG CANCER” (SHANGHAI JUNSHI BIOSCIENCES CO., LTD., priority 2020, published 2023)", "tested_on": "EGFR+NSCLC patients", "assay": "Phase II clinical trial, safety study (treatment-related adverse effects)", "conditions": "with pemetrexed + carboplatin; n = 40", "data": [{"substance": "toripalimab: anti-PD-1 humanized IgG4 mAb with light and heavy chains of SEQ ID NOs: 9 and 10; described in WO 2014206107", "values": [{"measurement": "Elevated glutamyltransferase (TRAE), incidence of grade 3-5", "result": 0, "unit": "%"}, {"measurement": "Elevated glutamyltransferase (TRAE), total incidence", "result": "(10.0) %"}, {"measurement": "Influenza and other diseases (TRAE), incidence of grade 3-5", "result": 0, "unit": "%"}, {"measurement": "Influenza and other diseases (TRAE), total incidence", "result": "(10.0) %"}, {"measurement": "Leukopenia (TRAE), incidence of grade 3-5", "result": "(22.5) %"}, {"measurement": "Urinary tract infection (TRAE), incidence of grade 3-5", "result": 0, "unit": "%"}, {"measurement": "Urinary tract infection (TRAE), total incidence", "result": "(12.5) %"}]}]}
